The source of these data is patent publication US20210340231A1 (FAPON BIOTECH, published 2021).

Broadly, the Kd is a measure of binding affinity in units of concentration. Usually koff stands for the first-order rate constant of dissociation. A word on the kon: it is the second-order rate constant of association.

B1: Mutation 2 (antibody, V domains shown)
VH: EVQLQQSGAELVKPGASVKLSCTASGFNLKEYFMHWMKQRTEQGLDWIGRIDPEDAETRYAPEFQGKATITADTSSNTAYLQLSTLTSEDTAVYYCARYYTSYIPFVYWGQGTLVTASA
VL: DVVMTQTPLSLSVSLGDQASISCRSSQSIIYSNRHTYLHWYLQKPGQSPKLLIFQISNRFSGVPDRFSGSGSGTDFTLKINRVEAEDLGVYFCSQSTHLPFTFGSGTKLEIKR
notes: built as for Mutation 1
B2: Mutation 4 (antibody, V domains shown)
VH: B1 VH with E31D, D52E, T101S
VL: B1 VL with R34K, Q95N
notes: built as for Mutation 1
B3: Mutation 5 (antibody, V domains shown)
VH: B1 VH with E31D, D52E, T101S
VL: B1 VL with R34K, N58Q, Q95N
notes: built as for Mutation 1
B4: Mutation 3 (antibody, V domains shown)
VH: B1 VH
VL: B1 VL with N58Q
notes: built as for Mutation 1
B5: WT 1-50 (antibody, V domains shown)
VH: B1 VH with F33Y, D52E, A56G, I104L
VL: B1 VL with I29L, R34K, I56L, N58Q, Q95N, F101Y
notes: Built as for Mutation 1
B6: WT 1-14 (antibody, V domains shown)
VH: B1 VH with L29I, D52E, R59K
VL: B1 VL with I29L, I30L, R34K, N58Q, Q95N, L99I
notes: built as for Mutation 1
B7: WT 1-3 (antibody, V domains shown)
VH: B1 VH with L29I, F33Y, D52E, A56G, R59K, I104L
VL: B1 VL with I29L, I30L, R34K, I56L, N58Q, Q95N, L99I, F101Y
notes: built as for Mutation 1
B8: WT 1-29 (antibody, V domains shown)
VH: B1 VH with F33Y, D52E, A56G, R59K, I104V
VL: B1 VL with I29L, I30L, R34K, I56V, N58Q, Q95N, F101Y
notes: built as for Mutation 1
B9: Mutation 1-14 (antibody, V domains shown)
VH: B1 VH with L29I, E31D, R59K, T101S
VL: B1 VL with I29L, I30L, L99I
notes: built as for Mutation 1
B10: Mutation 1-50 (antibody, V domains shown)
VH: B1 VH with E31D, R59K, T101S
VL: B1 VL with I30L, L99I
notes: built as for Mutation 1
B11: Mutation 1-11 (antibody, V domains shown)
VH: B1 VH with L29I, E31D, F33Y, R59K, T101S, I104V
VL: B1 VL with I30L, I56V, L99I
notes: built as for Mutation 1
B12: Mutation 1-6 (antibody, V domains shown)
VH: B1 VH with L29I, E31D, A56G, R59K, T101S, I104V
VL: B1 VL with I30L, I56V, L99I, F101Y
notes: built as for Mutation 1
B13: Mutation 1-38 (antibody, V domains shown)
VH: B1 VH with L29I, E31D, F33Y, R59K, T101S
VL: B1 VL with I29L, L99I
notes: built as for Mutation 1
B14: Mutation 1-34 (antibody, V domains shown)
VH: B1 VH with L29I, E31D, A56G, R59K, T101S
VL: B1 VL with I29L, I30L, L99I, F101Y
notes: built as for Mutation 1
B15: Mutation 1-23 (antibody, V domains shown)
VH: B1 VH with L29I, E31D, F33Y, A56G, R59K, T101S
VL: B1 VL with I30L, L99I, F101Y
notes: built as for Mutation 1
B16: Mutation 1-24 (antibody, V domains shown)
VH: B1 VH with E31D, T101S, I104V
VL: B1 VL with I29L, I30L, I56V, L99I
notes: built as for Mutation 1
B17: Mutation 1-4 (antibody, V domains shown)
VH: B1 VH with E31D, R59K, T101S, I104V
VL: B1 VL with I29L, I30L, I56V
notes: built as for Mutation 1
B18: Mutation 1-31 (antibody, V domains shown)
VH: B1 VH with L29I, E31D, F33Y, R59K, T101S, I104V
VL: B1 VL with I30L, I56V, L99I, F101Y
notes: built as for Mutation 1
B19: Mutation 1-44 (antibody, V domains shown)
VH: B1 VH with L29I, E31D, R59K, T101S, I104L
VL: B1 VL with I30L, I56L
notes: built as for Mutation 1
B20: Mutation 1-37 (antibody, V domains shown)
VH: B1 VH with L29I, E31D, A56G, R59K, T101S, I104V
VL: B1 VL with I30L, I56V, F101Y
notes: built as for Mutation 1
B21: Mutation 1-52 (antibody, V domains shown)
VH: B1 VH with L29I, E31D, T101S, I104V
VL: B1 VL with I29L, I30L, I56V
notes: built as for Mutation 1

Where a chain is given by its changes, count along the chain named.

T1 sequence (P19429 2-210 limits assumed): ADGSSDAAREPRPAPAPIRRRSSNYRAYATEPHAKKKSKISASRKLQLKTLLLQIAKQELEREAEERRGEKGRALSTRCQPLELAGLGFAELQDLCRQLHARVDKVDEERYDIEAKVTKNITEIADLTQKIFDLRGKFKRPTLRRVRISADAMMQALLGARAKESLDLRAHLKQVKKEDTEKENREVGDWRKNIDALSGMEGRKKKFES

One assay concerns the target T1, CTNI quality control recombinant protein (PK2-CTNI-1, 170120, produced by the applicant) (human, UniProt P19429 2-210, limits assumed).
T1 construct: also called cardiac troponin I
Description: indirect ELISA, cTnI coated 1 ug/ml, antibody 0 ug/ml (blank). How it is done: (§1) The cTnI quality control after diluted to 1 μg/ml with the coating solution was used for microplate coating at 100 uL per well and left at 4° C. overnight. The next day, the microplate was washed twice with the wash solution and tapped for drying. The blocking solution (20% BSA+80% PBS) was added at 120 μL per well and left for 1 h at 37° C., and the microplate was tapped for drying. The diluted cTn monoclonal antibody was added at 100 μL per well and left for 30 min at 37° C.; then the microplate was washed 5 times with the wash solution and tapped for drying. The goat anti-mouse IgG-HRP was added at 100 μL per well and left for 30 min at 37° C.; then the microplate was washed 5 times with the wash solution and tapped for drying. Colour-developing solution A was added at 50 μL per well, followed by colour-developing solution B at 50 μL per well; the mixed solution was left for 10 min; and stopping solution was added at 50 μL per well. The OD value was read out at 450 nm (reference at 630 nm) on the microplate reader.
A general note: In an ELISA, binding on a coated surface is turned into a signal by an enzyme label.
Take B1: the “OD 450 nm (reference 630 nm)” value was 0.04 OD.
For B2, the “OD 450 nm (reference 630 nm)” value came to 0.03 OD.
Turning to B3, the “OD 450 nm (reference 630 nm)” value amounted to 0.042 OD.
Still for that read-out and setting: then B4, with 0.028 OD.

In the next assay the target is T1, CTNI quality control recombinant …. Briefly: indirect ELISA, cTnI coated 1 ug/ml, antibody 1.6 ug/ml. How it is done:
as §1
As to B1, the “OD 450 nm (reference 630 nm)” value turned out to be 0.724 OD.
Same read-out and setting: then B2, with 0.689 OD.
Same read-out and setting: the result for B3 reads 0.721 OD; that for B4, 0.831 OD.

Another assay shares this target. Briefly: indirect ELISA, cTnI coated 1 ug/ml, antibody 8 ug/ml. How it is done: as §1
For the molecule B1, the “OD 450 nm (reference 630 nm)” value is 1.8 OD.
On to B2, for which the “OD 450 nm (reference 630 nm)” value came to 1.75 OD.
Take B3: the “OD 450 nm (reference 630 nm)” value came out at 1.69 OD.
On to B4, for which the “OD 450 nm (reference 630 nm)” value stood at 1.86 OD.

Another assay has the same target. Briefly: indirect ELISA, cTnI coated 1 ug/ml, antibody 1000 ug/ml. As for the experimental part: as §1
With B1, the “OD 450 nm (reference 630 nm)” value amounted to 2.38 OD.
As to B2, the “OD 450 nm (reference 630 nm)” value is 2.22 OD.
Turning to B3, the “OD 450 nm (reference 630 nm)” value stood at 2.2 OD.
On the same count and under the same terms, the result for B4 reads 2.35 OD.

Another assay has the same target. Description: AMC sensor kinetics, antibody captured, cTnI analyte.
In the case of B5, the Kd stood at 0.702 nM, the koff is 0.000489 s⁻¹ and the kon was 696000 M⁻¹ s⁻¹.
With B6, the Kd was found to be 0.749 nM, the koff amounted to 0.000398 s⁻¹ and the kon stood at 532000 M⁻¹ s⁻¹.
In the case of B7, the Kd came to 0.549 nM, the koff came to 0.000348 s⁻¹ and the kon turned out to be 633000 M⁻¹ s⁻¹.
In the case of B8, the Kd worked out at 1.23 nM, the koff is 0.00011 s⁻¹ and the kon was found to be 89600 M⁻¹ s⁻¹.

A further assay shares this target. Briefly: indirect ELISA, cTnI coated 1 ug/ml, antibody 200 ug/ml. As for the experimental part: as §1
As to B1, the “OD 450 nm (reference 630 nm)” value was 2.42 OD.
On to B2, for which the “OD 450 nm (reference 630 nm)” value amounted to 2.15 OD.
Same read-out and setting: then B3, with 2.2 OD; and B4, with 2.37 OD.

A further assay shares this target. Briefly: AMC sensor kinetics, antibody captured, cTnI analyte. The source holds these as a separate data set. As for the experimental part:
Using the AMC sensor, the purified antibody was diluted with PBST to 10 μg/ml, and the CTNI quality control recombinant protein (PK2-CTNI-1, 170120, produced by the applicant) was serially diluted with PBST to 400 nmol/ml, 200 nmol/ml, 100 nmol/ml, 50 nmol/ml, 25 nmol/ml, 12.5 nmol/ml, 6.25 nmol/ml, and 0 nmol/ml.
Take B9: the Kd stood at 0.415 nM, the koff is 0.000279 s⁻¹ and the kon was 673000 M⁻¹ s⁻¹.
On to B10, for which the Kd was found to be 0.386 nM, the koff is 5.48e-05 s⁻¹ and the kon stood at 142000 M⁻¹ s⁻¹.
For B11 the same measures were 0.606 nM, 0.000443 s⁻¹ and 731000 M⁻¹ s⁻¹.
In the case of B12, the Kd turned out to be 0.734 nM, the koff came to 0.000266 s⁻¹ and the kon was determined as 362000 M⁻¹ s⁻¹.
For B13, in that order: 0.24 nM, 0.000103 s⁻¹ and 431000 M⁻¹ s⁻¹.
For B14, in that order: 1.41 nM, 0.000598 s⁻¹ and 424000 M⁻¹ s⁻¹.
Take B15: the equilibrium dissociation constant (Kd) is 0.968 nM, the koff was found to be 0.000673 s⁻¹ and the kon was found to be 695000 M⁻¹ s⁻¹.
In the case of B16, the Kd amounted to 0.408 nM, the koff came out at 0.000259 s⁻¹ and the kon was 635000 M⁻¹ s⁻¹.
B17: the Kd was 0.963 nM, the off-rate constant (koff) was 0.00023 s⁻¹ and the on-rate (kon) worked out at 239000 M⁻¹ s⁻¹.
Regarding B18, the Kd was 0.795 nM, the koff was 0.000301 s⁻¹ and the kon was 378000 M⁻¹ s⁻¹.
As for B19, the Kd was 0.865 nM, the off-rate (koff) stood at 0.000464 s⁻¹ and the association rate constant (kon) came to 537000 M⁻¹ s⁻¹.
Take B20: the Kd was found to be 0.667 nM, the koff was 0.000267 s⁻¹ and the kon was 400000 M⁻¹ s⁻¹.
With B21, the Kd was 0.941 nM, the koff is 0.000229 s⁻¹ and the kon is 243000 M⁻¹ s⁻¹.

The next assay shares this target. Description: indirect ELISA, cTnI coated 1 ug/ml, antibody 0.32 ug/ml. As for the experimental part: as §1
Turning to B1, the “OD 450 nm (reference 630 nm)” value was 0.233 OD.
Same read-out and setting: the result for B2 reads 0.314 OD; that for B3, 0.189 OD; that for B4, 0.301 OD.

The target is the same in a further assay. Description: indirect ELISA, cTnI coated 1 ug/ml, antibody 40 ug/ml. As for the experimental part:
as §1
B1: the “OD 450 nm (reference 630 nm)” value was 2.3 OD.
With B2, the “OD 450 nm (reference 630 nm)” value came to 1.98 OD.
Consider B3, for which the “OD 450 nm (reference 630 nm)” value is 1.94 OD.
Turning to B4, the “OD 450 nm (reference 630 nm)” value was found to be 2.25 OD.
